In US20260335456A1, “ANTIBODY-DRUG CONJUGATE HAVING CAMPTOTHECIN-BASED DRUG LINKED TO ANTIBODY HAVING LOW ANTIGEN-BINDING AFFINITY THROUGH LINKER” (PINOTBIO, INC., priority 2022, published 2026):
Read-outs that look alike come from different tables or passages of the source.

Experiments:
[1] = system: FaDu cell line; assay: Western blot of DDX5 and anti-apoptotic proteins in FaDu; type: cell-based; details: 0, 10, 100 nM
Procedure: 1-1: Confirmation of Suppressive Activity of Expression of Cancer-Related Survival Genes of DDX5, Survivin, Mcl-1, XIAP and cIAP2 Through Western Blot
200,000 FaDu cell lines were seeded per well in a 6-well plate and incubated at constant temperature (37 °C, 5% CO2). […] It was incubated at constant temperature (37 °C, 5% CO2) for 24 hours. The well was treated with 100 μL of RIPA buffer dissolved in protease inhibitor cocktail. […] Protein concentration was determined through protein assay.
Electrophoresis was performed on the gel at 60V.
7 sheets of activated filter paper, PVDF membrane, gel and 7 sheets of filter paper were placed in order in the cassettes of the Trans-Blot® Turbo™ Transfer System, and the lid was closed, and after being inserted into the machine, the protocol started.
The transferred membrane was immersed in blocking buffer and incubated at constant temperature (RT, 1h). Next, it was incubated at 4 °C overnight in primary antibody solution. It was rinsed with TBST buffer for 3 minutes (repeated 3 times). Incubation was performed (RT, 1h) in a secondary antibody solution conjugated with HRP. It was rinsed with TBST buffer for 3 minutes (repeated 3 times).
After soaking the membrane in the ECL substrate for 3 to 5 minutes, the signal was determined by using the ChemiDoc™ MP Imaging System.

[2] = system: MDA-MB-453 (HER2++) and FaDu (HER2+) cell lines; assay: Cell viability test in MDA-MB-453 and FaDu; type: cell-based; details: 3 days, FIG. 10
Procedure: Cell viability assay was performed on MDA-MB-453 (HER2++) cell line and FaDu (HER2+) cell line in the same manner as Example 1-2.

[3] = Lactone to carboxylate form conversion in pH 7.4; type: physicochemical
Procedure: 3-2. Lactone to Carboxylate Form Conversion in pH 7.4
Afterwards, it was centrifuged at 4 °C, 2 minutes, and 13,000 RCF conditions, and the supernatant was used as a sample.
The column used was Cortecs C18 2.7 μm, 4.6×50 mm Column, and analysis was conducted under the following conditions. 1) 20 minutes: 5% B, 2) sample injection, 3) 2 minutes: 5% B, 4) 10 minutes: 5% B→50% B, 5) 1 minute: 50% B.
In order to measure changes over time, the sample chamber was maintained at 37 °C, and the sample was set to be injected every measurement time. The measurement times were 0, 20, 40, 60, 90, 120, 180, 240, 300, 360, 480, 600 and 720 minutes.
The content was calculated from the peak area of each lactone and carboxylate. Since the absorption coefficients of lactone and carboxylate are different, the lactone area was obtained by multiplying the carboxylate area by the equation below.

[4] = system: A549 cell line; assay: Western blot of DDX5 and anti-apoptotic proteins in A549; type: cell-based
[5] = system: A549; assay: Cell viability assay in A549; type: cell-based; details: A549, FIG. 9
Procedure: After 24 hours, 100 μL of the drug at 9 concentrations (serial dilution of 1/5 from 1,000 nM) was treated with the cells. […] In this case, a control group that was not treated with the drug (drug concentration 0) was also prepared. It was cultured at constant temperature (37 °C, 5% CO2) for 3 or 6 days. 100 μL of CellTiter-Glo reagent (using CellTiter-Glo® Luminescent Cell Viability Assay kit (Promega, G7571)) was added to each well and pipetted. After incubation at constant temperature (RT) for 10 minutes, luminescence was measured.

[6] = PBX-7016 pharmacokinetic profile in NOD SCID mice; type: in vivo
[7] = system: patients treated with Sacituzumab Govitecan; details: cited from earlier work
[8] = system: various metastatic solid tumors; details: 8 mg/kg to 18 mg/kg; cited from earlier work
[9] = system: metastatic epithelial cancers; details: cited from earlier work
[10] = system: cells with an ABCG2 efflux pump; assay: ABCG2 efflux pump resistance, PBX-001 versus Trodelvy; type: cell-based

In the case of `CC[C@@]1(O)C(=O)OCc2c1cc1n(c2=O)Cc2c-1nc1cc3c(c4c1c2[C@@H](NC(=O)[C@@H](C)O)CC4)OCO3` [PBX-7016], the DDX5 degradation ranking ([1]; FaDu and A549) is reported as “followed by 7011, 7016 and 7014”, the “expression of anti-apoptotic proteins” value ([1]; Survivin, cIAP2, Mcl-1, XIAP, 24 hours) is reported as “decrease in the expression of Survivin, cIAP2, Mcl-1 and XIAP as the concentration increased” and the “IC50 compared to Dxd” value [2] is reported as “IC50 of the same or higher level than Dxd”. The “rate of conversion from lactone to carboxylate form” value ([3]; pH 7.4, 37 °C) was 0.8 % per minute, the degraded at 3 µM ([3]; pH 7.4, 37 °C, PBS with 10% DMSO, read-out: carboxylate form formed) was > 86% and the “lactone to carboxylate conversion versus reference compounds” value ([3]; pH 7.4, reference: exatecan, DXd, SN-38, FL118) was “faster and at a higher rate than other reference compounds”. The “dual mechanism (topoisomerase I inhibition and DDX5 degradation)” value [4] was “dual MoA that acts as a degrader of DDX5 (p68)”, the DDX5 inhibition ([4]; FIGS. 7 and 8) was “inhibits DDX5 in a concentration-dependent manner” and the “Survivin, Mcl-1 inhibition” value ([4]; FIGS. 7 and 8) was “observed to inhibit Survivin, Mcl-1”. For the same compound, the “comparison with PBX-7014” value ([4]; FIGS. 7 and 8) was “worked better than PBX-7014”, the DDX5 degradation ranking ([4]; FaDu and A549, 0, 10, 100 nM) was “followed by 7011, 7016 and 7014” and the “efficacy / IC50 in ABCG2-overexpressing cells” value [5] was “still maintained strong efficacy”. The “plasma concentration, individual mice” value ([6]; IP 1 mg/kg, 4 h, Mouse 4-6) was “BLOQ”, the “plasma concentration, individual mice” value ([6]; IP 1 mg/kg, 12 h, Mouse 4-6) was “BLOQ” and the “plasma concentration, individual mice” value ([6]; IP 1 mg/kg, 24 h, Mouse 4-6) was “BLOQ”. For the same compound, the “plasma concentration, individual mice” value ([6]; IP 1 mg/kg, 48 h, Mouse 4-6) was “BLOQ”, the “plasma concentration, individual mice” value ([6]; IV 1 mg/kg, 4 h, Mouse 1-3) was “BLOQ” and the “plasma concentration, individual mice” value ([6]; IV 1 mg/kg, 12 h, Mouse 1-3) was “BLOQ”. For the same compound, the “plasma concentration, individual mice” value ([6]; IV 1 mg/kg, 24 h, Mouse 1-3) was “BLOQ”, the “plasma concentration, individual mice” value ([6]; IV 1 mg/kg, 48 h, Mouse 1-3) was “BLOQ” and the “clearance from the blood” value ([6]; intravascular or intraperitoneal, mice) was “cleared from the blood very quickly”.
In the case of “Sacituzumab Govitecan: humanized IgG linked to SN-38 through a pH-sensitive linker”, the “diarrhea, all grade” value ([7]; all treated patients) is listed as 65%, the “neutropenia, any grade” value ([7]; all treated patients) is listed as 61% and the febrile neutropenia ([7]; patients) is listed as 7%. For the same compound, the neutropenic colitis ([7]; patients) was 0.5%, the dose-limiting toxicity [8] was “neutropenia” and the “anemia, any grade” value ([9]; 8 mg/kg) was 38%. For the same compound, the “anemia, grade 3 or higher” value ([9]; 8 mg/kg) was 13%, the “constipation, any grade” value ([9]; 8 mg/kg) was 33% and the “diarrhea, any grade” value ([9]; 8 mg/kg) was 53%. The “diarrhea, grade 3 or higher” value ([9]; 8 mg/kg) was 4%, the dose reductions ([9]; 8 mg/kg) was 19% and the “fatigue, any grade” value ([9]; 8 mg/kg) was 61%. The “grade 3 or higher neutropenia after the first dose” value ([9]; 8 mg/kg) was 21%, the “hair loss, any grade” value ([9]; 8 mg/kg) was 46% and the “leukopenia, grade 3 or higher” value ([9]; 8 mg/kg) was 6%. For the same compound, the “nausea, any grade” value ([9]; 8 mg/kg) was 59%, the “neutropenia, any grade” value ([9]; 8 mg/kg) was 42% and the “neutropenia, grade 3 or higher” value ([9]; 8 mg/kg) was 30%. The “vomiting, any grade” value ([9]; 8 mg/kg) was 36%, the “anemia, any grade” value ([9]; 10 mg/kg) was 42% and the “constipation, any grade” value ([9]; 10 mg/kg) was 37%. The “diarrhea, any grade” value ([9]; 10 mg/kg) was 62%, the “diarrhea, grade 3 or higher” value ([9]; 10 mg/kg) was 10% and the dose reductions ([9]; 10 mg/kg) was 28%. The “fatigue, any grade” value ([9]; 10 mg/kg) was 52%, the “grade 3 or higher neutropenia after the first dose” value ([9]; 10 mg/kg) was 47% and the “hair loss, any grade” value ([9]; 10 mg/kg) was 37%. The “nausea, any grade” value ([9]; 10 mg/kg) was 63%, the “neutropenia, any grade” value ([9]; 10 mg/kg) was 58% and the “neutropenia, grade 3 or higher” value ([9]; 10 mg/kg) was 36%. The “vomiting, any grade” value ([9]; 10 mg/kg) was 43% and the “resistance through ABCG2 efflux pump” value [10] was “resistant”.
